Data: US20200317768A1 (published 2020)
Where a chain is given by its changes, count along the chain named.

B1: M103205H795-MY270/M103202L889-SK1 (antibody, human IgG1, kappa)
heavy: QVTLKESGPVLVKPTETLTLTCTVSGIDLSHDDISWVRQAPGKGLEWVGIISYAGSTYYASWAKGRLTISKDTSKNQVVLTMTNMDPVDTATYYCARGVPAYSHGGDLWGQGTLVTVSSASTKGPSVFPLAPSSKSTSGGTAALGCLVKDYFPEPVTVSWNSGALTSGVHTFPAVLQSSGLYSLSSVVTVPSSSLGTQTYICNVNHKPSNTKVDKKVEPKSCDKTHTCPPCPAPELLHGPSVFLFPPKPKDTLMISRTPEVTCVVVDVSDEDPEVKFNWYVDGVEVHNAKTKPREEQYNSTYRVVSVLTVLHQDWLNGKEYKCKVSNKALPKPIEKTISKAKGQPREPQVYTLPPSREEMTKNQVSLTCLVKGFYPSDIAVEWESNGQPENNYKTTPKVLDSDGSFFLYSKLTVDKSRWQQGNVFSCSVMHEALHNHYTQKSLSLSP
light: DIVMTQSPATLSLSPGERATLSCTSSQSVYHANWLSWFQQKPGQPPKLLIYWASTLAYGVPSRFSGSGSGTDFTLTISSLQPEDAATYYCAGGYGGGRYAFGQGTKVEIKRTVAAPSVFIFPPSDEQLKSGTASVVCLLNNFYPREAKVQWKVDNALQSGNSQESVTEQDSKDSTYSLSSTLTLSKADYEKHKVYACEVTHQGLSSPVTKSFNRGEC
B2: M103205H795-MY271/M103202L889-SK1 (antibody, human IgG1, kappa)
heavy: B1 heavy with H238V
light: B1 light
B3: M103205H795-MY272/M103202L889-SK1 (antibody, human IgG1, kappa)
heavy: B1 heavy with H238Q
light: B1 light
B4: M103205H795-MY273/M103202L889-SK1 (antibody, human IgG1, kappa)
heavy: B1 heavy with H238L
light: B1 light
B5: M103205H795-MY274/M103202L889-SK1 (antibody, human IgG1, kappa)
heavy: B1 heavy with H238T
light: B1 light
B6: M103205H795-MY276/M103202L889-SK1 (antibody, human IgG1, kappa)
heavy: B1 heavy with H238I
light: B1 light
B7: M103205H795-MY278/M103202L889-SK1 (antibody, human IgG1, kappa)
heavy: B1 heavy with H238M, Q297L, K398P
light: B1 light
B8: M103205H795-MY279/M103202L889-SK1 (antibody, human IgG1, kappa)
heavy: B1 heavy with Q297L, K398P
light: B1 light
B9: M103205H795-MY281/M103202L889-SK1 (antibody, human IgG1, kappa)
heavy: B1 heavy with H238Q, Q297L, K398P
light: B1 light
B10: M103205H795-MY292/M103202L889-SK1 (antibody, human IgG1, kappa)
heavy: B1 heavy with H238G, G239Y, Q297L, K398M
light: B1 light
B11: M103205H795-MY293/M103202L889-SK1 (antibody, human IgG1, kappa)
heavy: B1 heavy with H238G, G239Y, D270E, Q297L
light: B1 light
B12: M103205H795-MY308/M103202L889-SK1 (antibody, human IgG1, kappa)
heavy: B1 heavy with H238T, D270E, K398P
light: B1 light
B13: M103205H795-MY309/M103202L889-SK1 (antibody, human IgG1, kappa)
heavy: B1 heavy with H238T, D270E, K398M
light: B1 light
B14: M103205H795-MY310/M103202L889-SK1 (antibody, human IgG1, kappa)
heavy: B1 heavy with H238T, D270E, K328T, K398P
light: B1 light

Assays:
Assay in all cases: SPR (Biacore), KD of SG1 / KD of variant;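 also: relative to parent M103205H795-SG1 carrying the SG1 human heavy chain constant region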
[1] = biological target: T1, cynomolgus monkey FcγRIIa1 extracellular domain, C-terminal His-tag (cynomolgus monkey)
T1 construct: also called cyno FcγRIIa1; cynoFcgRIIa1; not shown: His-tag added to C-terminus
T1 chain: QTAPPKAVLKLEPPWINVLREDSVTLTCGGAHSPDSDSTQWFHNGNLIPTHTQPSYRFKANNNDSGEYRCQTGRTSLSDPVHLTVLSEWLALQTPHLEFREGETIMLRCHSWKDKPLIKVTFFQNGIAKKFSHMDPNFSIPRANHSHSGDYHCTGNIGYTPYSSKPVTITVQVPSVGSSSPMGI

[2] = biological target: T2, cynomolgus monkey FcγRIIa2 extracellular domain, C-terminal His-tag (cynomolgus monkey)
T2 construct: also called cyno FcγRIIa2; cynoFcgRIIa2; not shown: His-tag added to C-terminus
T2 chain: T1 chain with P95T, T121A, I127K, A128S, K130N, D135N, R142Q

[3] = biological target: T3, cynomolgus monkey FcγRIIa3 extracellular domain, C-terminal His-tag (cynomolgus monkey)
T3 construct: also called cyno FcγRIIa3; cynoFcgRIIa3; not shown: His-tag added to C-terminus
T3 chain: T1 chain with P95T, T121A, A128S, H133P, D135N

[4] = biological target: T4, cynomolgus monkey FcγRIIb extracellular domain, C-terminal His-tag (cynomolgus monkey)
T4 construct: also called cyno FcγRIIb; cynoFcγRIIb; not shown: His-tag added to C-terminus
T4 chain: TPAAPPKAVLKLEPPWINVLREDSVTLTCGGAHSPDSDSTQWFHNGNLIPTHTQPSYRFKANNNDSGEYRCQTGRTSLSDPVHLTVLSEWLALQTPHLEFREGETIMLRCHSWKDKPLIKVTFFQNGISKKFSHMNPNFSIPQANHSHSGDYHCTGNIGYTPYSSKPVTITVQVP

[5] = biological target: T5, human FcγRIIaH extracellular domain, C-terminal His-tag (human, UniProt P12318 34-217)
T5 construct: also called human FcγRIIa (type H); FcgRIIaH; not shown: His-tag added to C-terminus
T5 sequence: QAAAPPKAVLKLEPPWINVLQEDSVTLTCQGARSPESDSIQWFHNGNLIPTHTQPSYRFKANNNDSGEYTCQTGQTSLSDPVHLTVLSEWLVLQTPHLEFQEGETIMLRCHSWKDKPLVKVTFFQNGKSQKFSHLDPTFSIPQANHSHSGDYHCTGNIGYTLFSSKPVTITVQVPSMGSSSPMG

[6] = biological target: T6, human FcγRIIaR extracellular domain, C-terminal His-tag (human, UniProt P12318 34-217)
T6 construct: also called human FcγRIIa (type R); FcgRIIaR; not shown: His-tag added to C-terminus
T6 chain: T5 sequence with H134R

[7] = biological target: T7, human FcγRIIb extracellular domain, C-terminal His-tag (human, UniProt P31994 43-217)
T7 construct: also called FcgRIIb (human); not shown: His-tag added to C-terminus
T7 sequence: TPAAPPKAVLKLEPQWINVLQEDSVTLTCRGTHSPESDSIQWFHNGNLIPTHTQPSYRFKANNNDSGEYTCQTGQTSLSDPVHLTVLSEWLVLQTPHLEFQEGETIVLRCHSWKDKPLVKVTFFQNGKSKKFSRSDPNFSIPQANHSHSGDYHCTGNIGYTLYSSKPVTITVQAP

[8] = biological target: T8, human FcγRIIIaV extracellular domain, C-terminal His-tag (human, UniProt P08637 17-208)
T8 construct: also called FcgRIIIaV; not shown: His-tag added to C-terminus
T8 sequence (P08637 17-208 F176V): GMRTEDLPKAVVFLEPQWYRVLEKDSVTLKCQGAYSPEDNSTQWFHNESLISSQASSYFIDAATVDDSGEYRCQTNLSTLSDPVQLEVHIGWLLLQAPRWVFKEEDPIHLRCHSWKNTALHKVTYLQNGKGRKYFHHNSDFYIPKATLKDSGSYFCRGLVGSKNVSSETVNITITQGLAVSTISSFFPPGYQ

Row | Binder | KD fold (SG1 = 1) [1] | KD fold (SG1 = 1) [2] | KD fold (SG1 = 1) [3] | KD fold (SG1 = 1) [4] | KD fold (SG1 = 1) [5] | KD fold (SG1 = 1) [6] | KD fold (SG1 = 1) [7] | KD fold (SG1 = 1) [8]
1 | B1 | 1.8 fold | 2.4 fold | 6.5 fold | 3.4 fold | 9.5 fold | 3.1 fold | 1.3 fold | 0.22 fold
2 | B2 | 4.7 fold | 7.3 fold | 3.5 fold | 9.5 fold | 15.7 fold | 4.8 fold | 2.2 fold | 0.35 fold
3 | B3 | 1.9 fold | 2.7 fold | 2.7 fold | 4.2 fold | 7.5 fold | 4.4 fold | 3.5 fold | 0.93 fold
4 | B4 | 0.8 fold | 1.5 fold | 1.5 fold | 1.5 fold | 1.4 fold | 1.1 fold | 0.9 fold | 0.08 fold
5 | B5 | 3.6 fold | 6.4 fold | 8.5 fold | 7.8 fold | 8.3 fold | 6.5 fold | 4.8 fold | 0.33 fold
6 | B6 | 2.9 fold | 4.6 fold | 3.8 fold | 5.3 fold | 13 fold | 4.4 fold | 1.9 fold | 0.14 fold
7 | B7 | 1.1 fold | 1.4 fold | 1.7 fold | 1.6 fold | 1.3 fold | 0.7 fold | 1 fold | 0.24 fold
8 | B8 | 1.1 fold | 1.5 fold | 3.6 fold | 2 fold | 4.9 fold | 1.5 fold | 1 fold | 0.12 fold
9 | B9 | 1.7 fold | 2 fold | 1.9 fold | 2.9 fold | 3.3 fold | 2.8 fold | 2.6 fold | 0.39 fold
10 | B10 | 2.1 fold | 2 fold | 7.7 fold | 4 fold | 0.7 fold | 14.5 fold | 32.9 fold | 0.03 fold
11 | B11 | 1.1 fold | 1.5 fold | 4.4 fold | 2.1 fold | 0.5 fold | 15.1 fold | 30.7 fold | 0.02 fold
12 | B12 | 1 fold | 1.9 fold | 1.3 fold | 1.2 fold | 1.5 fold | 1.3 fold | 1.1 fold | 0.03 fold
13 | B13 | 1.3 fold | 2 fold | 2.4 fold | 2.9 fold | 4.9 fold | 4.3 fold | 2.9 fold | 0.19 fold
14 | B14 | 1.1 fold | 1.8 fold | 2.4 fold | 1.9 fold | 1.7 fold | 2 fold | 1.6 fold | 0.12 fold
